From patent publication US20200085917A1

Tests used:
[1] = biological target: 5730469M10Rik_IPI:IPI00187272.3 (mouse); assay: GST pull-down, LC-MS/MS
[2] = biological target: Chchd3_IPI:IPI00133562.1 (mouse) (UniProt Q9CRB9); assay: GST pull-down, LC-MS/MS
[3] = biological target: Coq5_IPI:IPI00379695.2 (mouse) (UniProt Q9CXI0); assay: GST pull-down, LC-MS/MS
[4] = biological target: Cplx1_IPI:IPI00132278.1 (mouse) (UniProt P63040); assay: GST pull-down, LC-MS/MS
[5] = biological target: Dci_IPI:IPI00114416.1 (mouse) (UniProt P42125); assay: GST pull-down, LC-MS/MS
Sequence of Dci_IPI:IPI00114416.1 (mouse) (P42125 29-289 limits assumed): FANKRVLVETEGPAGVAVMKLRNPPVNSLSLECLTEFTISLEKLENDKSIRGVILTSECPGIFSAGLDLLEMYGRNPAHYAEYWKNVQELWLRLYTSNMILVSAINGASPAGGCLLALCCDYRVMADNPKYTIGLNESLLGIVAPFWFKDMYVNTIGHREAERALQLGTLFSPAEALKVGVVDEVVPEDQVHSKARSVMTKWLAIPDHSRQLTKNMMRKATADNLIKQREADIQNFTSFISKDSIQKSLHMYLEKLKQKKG

[6] = biological target: Hsd17b10_IPI:IPI00320847.1 (mouse) (UniProt O08756); assay: GST pull-down, LC-MS/MS
Sequence of Hsd17b10_IPI:IPI00320847.1 (mouse) (O08756 2-261 limits assumed): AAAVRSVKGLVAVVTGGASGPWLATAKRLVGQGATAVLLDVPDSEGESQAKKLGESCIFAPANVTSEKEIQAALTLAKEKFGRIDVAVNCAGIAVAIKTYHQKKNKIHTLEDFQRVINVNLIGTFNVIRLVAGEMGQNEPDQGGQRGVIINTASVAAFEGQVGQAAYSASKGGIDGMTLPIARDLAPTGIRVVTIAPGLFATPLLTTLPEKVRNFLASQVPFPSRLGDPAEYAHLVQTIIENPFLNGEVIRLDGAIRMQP

[7] = biological target: Hsdl1_IPI:IPI00225301.1 (mouse) (UniProt Q8BTX9); assay: GST pull-down, LC-MS/MS
Sequence of Hsdl1_IPI:IPI00225301.1 (mouse) (Q8BTX9 2-330 limits assumed): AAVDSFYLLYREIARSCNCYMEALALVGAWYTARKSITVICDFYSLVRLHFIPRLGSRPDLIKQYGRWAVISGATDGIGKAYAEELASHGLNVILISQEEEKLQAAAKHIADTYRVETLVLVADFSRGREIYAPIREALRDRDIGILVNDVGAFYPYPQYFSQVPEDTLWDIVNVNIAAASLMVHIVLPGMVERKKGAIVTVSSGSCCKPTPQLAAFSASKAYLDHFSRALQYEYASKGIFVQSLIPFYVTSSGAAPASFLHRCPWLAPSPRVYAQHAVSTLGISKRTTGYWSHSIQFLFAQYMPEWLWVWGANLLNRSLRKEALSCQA

[8] = biological target: Lyrm7_IPI:IPI00117832.1 (mouse) (UniProt Q9DA03); assay: GST pull-down, LC-MS/MS
Sequence of Lyrm7_IPI:IPI00117832.1 (mouse) (Q9DA03 whole entry): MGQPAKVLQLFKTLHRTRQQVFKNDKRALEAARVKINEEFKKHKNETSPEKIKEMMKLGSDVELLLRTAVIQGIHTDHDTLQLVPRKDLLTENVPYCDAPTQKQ

[9] = biological target: Mrps33_IPI:IPI00135214.1 (mouse) (UniProt Q9D2R8); assay: GST pull-down, LC-MS/MS
Sequence of Mrps33_IPI:IPI00135214.1 (mouse) (Q9D2R8 2-106 limits assumed): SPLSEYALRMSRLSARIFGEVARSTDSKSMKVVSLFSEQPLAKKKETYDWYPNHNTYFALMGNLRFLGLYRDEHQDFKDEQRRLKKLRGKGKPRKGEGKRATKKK

[10] = biological target: Ociad2_IPI:IPI00112139.1 (mouse) (UniProt Q9D8W7); assay: GST pull-down, LC-MS/MS
Sequence of Ociad2_IPI:IPI00112139.1 (mouse) (Q9D8W7 whole entry): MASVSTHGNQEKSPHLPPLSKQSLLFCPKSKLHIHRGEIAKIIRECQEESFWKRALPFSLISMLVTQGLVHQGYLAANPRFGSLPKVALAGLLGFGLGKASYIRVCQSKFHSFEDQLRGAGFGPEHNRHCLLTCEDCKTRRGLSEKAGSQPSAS

[11] = biological target: Rab2a_IPI:IPI00137227.1 (mouse) (UniProt P53994); assay: GST pull-down, LC-MS/MS
Sequence of Rab2a_IPI:IPI00137227.1 (mouse) (P53994 2-212 limits assumed): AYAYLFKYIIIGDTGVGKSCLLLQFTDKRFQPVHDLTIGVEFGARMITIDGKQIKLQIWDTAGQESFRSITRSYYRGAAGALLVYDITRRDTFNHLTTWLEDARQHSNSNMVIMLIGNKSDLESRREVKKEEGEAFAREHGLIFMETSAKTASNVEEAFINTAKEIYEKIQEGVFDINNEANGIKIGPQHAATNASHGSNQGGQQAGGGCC

[12] = biological target: Slc25a27_IPI:IPI00108998.1 (mouse) (UniProt Q9D6D0); assay: GST pull-down, LC-MS/MS
Sequence of Slc25a27_IPI:IPI00108998.1 (mouse) (Q9D6D0 whole entry): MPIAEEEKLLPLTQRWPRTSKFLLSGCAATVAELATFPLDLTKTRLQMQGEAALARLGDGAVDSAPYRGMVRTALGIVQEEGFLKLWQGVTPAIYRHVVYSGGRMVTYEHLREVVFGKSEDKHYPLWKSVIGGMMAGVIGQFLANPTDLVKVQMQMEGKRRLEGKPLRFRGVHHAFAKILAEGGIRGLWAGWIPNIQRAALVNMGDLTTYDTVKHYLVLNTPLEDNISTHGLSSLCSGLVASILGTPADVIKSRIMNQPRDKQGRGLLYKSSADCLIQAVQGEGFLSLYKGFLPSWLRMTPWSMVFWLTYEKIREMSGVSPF

[13] = biological target: Uqcrq_IPI:IPI00224210.5 (mouse) (UniProt Q9CQ69); assay: GST pull-down, LC-MS/MS
Sequence of Uqcrq_IPI:IPI00224210.5 (mouse) (Q9CQ69 whole entry): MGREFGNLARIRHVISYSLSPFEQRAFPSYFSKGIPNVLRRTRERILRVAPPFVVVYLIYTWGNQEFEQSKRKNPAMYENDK

[14] = biological target: Ywhaq_IPI:IPI00408378.4 (mouse) (UniProt P68254); assay: GST pull-down, LC-MS/MS
Sequence of Ywhaq_IPI:IPI00408378.4 (mouse) (P68254 whole entry): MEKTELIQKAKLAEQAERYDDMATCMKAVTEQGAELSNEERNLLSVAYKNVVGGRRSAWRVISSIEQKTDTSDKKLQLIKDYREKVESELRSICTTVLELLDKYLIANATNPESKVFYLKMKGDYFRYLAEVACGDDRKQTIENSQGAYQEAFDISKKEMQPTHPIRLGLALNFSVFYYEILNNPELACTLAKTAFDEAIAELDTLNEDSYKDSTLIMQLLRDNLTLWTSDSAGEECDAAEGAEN

[15] = biological target: TIM23 complex (mitochondrial inner membrane translocase, mouse forebrain mitochondria) (mouse) (UniProt Q9WTQ8); assay: cell-based or functional assay

Sequence of Chchd3_IPI:IPI00133562.1 (mouse) (Q9CRB9 2-227 limits assumed): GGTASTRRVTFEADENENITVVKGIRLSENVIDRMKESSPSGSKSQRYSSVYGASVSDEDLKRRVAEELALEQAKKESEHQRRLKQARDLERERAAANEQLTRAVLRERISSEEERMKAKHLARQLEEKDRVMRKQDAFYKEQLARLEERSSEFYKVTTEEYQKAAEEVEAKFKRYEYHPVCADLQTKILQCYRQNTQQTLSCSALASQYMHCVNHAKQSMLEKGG
Sequence of Coq5_IPI:IPI00379695.2 (mouse) (Q9CXI0 50-327 limits assumed): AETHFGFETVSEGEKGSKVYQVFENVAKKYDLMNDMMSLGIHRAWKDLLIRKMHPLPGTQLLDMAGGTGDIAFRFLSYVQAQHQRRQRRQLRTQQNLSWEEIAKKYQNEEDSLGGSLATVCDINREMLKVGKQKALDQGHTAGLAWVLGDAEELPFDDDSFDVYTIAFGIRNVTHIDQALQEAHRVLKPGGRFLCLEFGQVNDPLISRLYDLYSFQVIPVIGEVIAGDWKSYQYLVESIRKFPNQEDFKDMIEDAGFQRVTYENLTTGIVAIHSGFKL
Sequence of Cplx1_IPI:IPI00132278.1 (mouse) (P63040 whole entry): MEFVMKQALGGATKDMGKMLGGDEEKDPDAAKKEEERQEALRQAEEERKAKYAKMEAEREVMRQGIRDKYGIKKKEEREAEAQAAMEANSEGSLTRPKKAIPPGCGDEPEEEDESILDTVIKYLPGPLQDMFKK
Sequence of 5730469M10Rik_IPI:IPI00187272.3 (mouse) (Q9CYH2 whole entry): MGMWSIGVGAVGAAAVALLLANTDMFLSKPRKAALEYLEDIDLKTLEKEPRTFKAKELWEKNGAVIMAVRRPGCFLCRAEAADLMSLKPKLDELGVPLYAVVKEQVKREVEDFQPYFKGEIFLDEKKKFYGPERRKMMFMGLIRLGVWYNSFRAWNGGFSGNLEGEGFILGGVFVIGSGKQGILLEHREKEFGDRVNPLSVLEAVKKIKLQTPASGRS

- No. of total peptides [1]: 1 peptides
- No. of unique peptides [1]: 1 peptides
- No. of total peptides [2]: 2 peptides
- No. of unique peptides [2]: 2 peptides
- No. of total peptides [3]: 2 peptides
- No. of unique peptides [3]: 2 peptides
- No. of total peptides [4]: 6 peptides
- No. of unique peptides [4]: 4 peptides
- No. of total peptides [5]: 7 peptides
- No. of unique peptides [5]: 6 peptides
- No. of total peptides [6]: 1 peptides
- No. of unique peptides [6]: 1 peptides
- No. of total peptides [7]: 2 peptides
- No. of unique peptides [7]: 2 peptides
- No. of total peptides [8]: 1 peptides
- No. of unique peptides [8]: 1 peptides
- No. of total peptides [9]: 1 peptides
- No. of unique peptides [9]: 1 peptides
- No. of total peptides [10]: 3 peptides
- No. of unique peptides [10]: 3 peptides
- No. of total peptides [11]: 1 peptides
- No. of unique peptides [11]: 1 peptides
- No. of total peptides [12]: 2 peptides
- No. of unique peptides [12]: 2 peptides
- No. of total peptides [13]: 1 peptides
- No. of unique peptides [13]: 1 peptides
- No. of total peptides [14]: 1 peptides
- No. of unique peptides [14]: 1 peptides
- reduction of pOTC import into wild-type mouse forebrain mitochondria after incubation with 3 µM GST-Httex1-97Q, compared to control GST [15]: 50%
- reduction of pOTC import into wild-type mouse forebrain mitochondria after incubation with 10 µM GST-Httex1-97Q, compared to control GST [15]: 73%
Substance: GST-Httex1-97Q (from UniProt P08515 1-218; P42858 1-88)
